The values below come from a protein production outcome set (Wang et al. 2014).
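Further: failed if final PepcDB status was selected cloned or expressed and not failed if soluble or beyond.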

The nature of the series: label from the status in PepcDB records.
As for “PLPPPRALTLAAVTPRTVHLTWQPSAGATHYLVRCSPASPKGEEEEREVQVGRPEVLLDGLEPGRDYEVSVQSLRGPEGSEARGIRARTPT”, the protein production entry was “not failed”.

For “MSDAVEEAEARAVEPVGAKQRDAFISYSQSKNAPLAKQLQRGLERLAVSRFRPMRMSVFRDVTSLPANHDLWQSIQRELARSRYFILLASPEAAASPWVAREVDYWLRERDTEHLLIAVASGEIVWDDRAGDFDWRKTTSLPRNLAGHFTAAPLWVDLREIGERSHHSMRYPPFRAAVATLASPLHGRPKEELEHDDFRQLRFVKRLSWSGVALLVALLVLAVYGFFDASRQREAALSQARTSASQALAARSGQLLGTSPNQAAQYALYAEETRSTPESRRALAQAVTAAPYARRRLRADADSVTDMQGASRPAATDVVLSGDGTTAAYRSVFDDDRAVRLYDVPSARQSRVVRAEGTPRALSRDGRVLAMEVYLNRVQLWDTRSGRLLSTMATGHTENLPHVGHGLHALALSPDGRWVAASHYTPEGEAFAVVWRASDGREITRVPVSDARVGLGFSADGSRLTLVDQDRREVREFRTDSARWEAARSLPGMPGSTAEALRYSEVLLFDGARKALTRTSERAEVWDLEQRRRIAVRSLGPYEDMTVADDKGIFLLGGQDGTVRLYDAALRPGTTLGRLTRPASTIAMSADGTQVVVASYGGELNLFTTGVRRGQQVAFDEKDFTFGDLTPDGRMAVHRSEGRTEFWDPATGRRLGVIPYANLSVNLEDTAYTLSGDKRYVGMQSVEGFEDEGRFDVWDLRTGRRTDCGTAVGGSSFSPIRRPGLSFLPGDRYVVGEWNGAVELLDTRTCTRSTVTEDSGRFALSGDRRTLVLLNDDGVDTWRWDGDHAFARAARTTLPSEAHPVDMSVDHEGRQAAFSDRESHVYVVRLDSGERVRATGYLPDKTDAVAFSRDGRLLFQGFMTESTRGVRVLDAGSGDQLDIWTTDPPTGSVQPNEGMQVVPGPADDILTLGPDHKVVRRTVGVGAWHDLLCGLVSQPLPARERDRYLKDLDVEDPCR”, the protein production result is on record as “failed”.

Regarding “MTNLDEFLEELSSIESHSQKIVKIDEHLKKLDEETKEDEDEDAAKIIQDRSTAREAEIALLMDLRQNFLPPPSMSSSSLQPPSSSTLAPSSSSSLQPPAPLIDFFRSSVSYSHQPPSSSTLATSSSPSLQPPSMSSSSLQPPASLREFFTSSVSYSHQPSSSSTLATSSFFPSSMPYSVRPPDSSDRPSLREFFPSSPSSSIQPPESSSSKRARLSNIFPSPLSSSPSPFVNPFLRPQAQEPTIPNFINPIPQISPGLPALFPNPNPNPNPNPIPNPIRNPDLVWTNRLQLVFDDAVVRLGGLFSATPKAINELISEEGLTGDQIRSHLQVLRDRQKAIADKLALE”, the protein production result is “failed”.

As to “MTGPDRVALLVLAALVLDWLLGDPRWLPHPVVAVGRLVTALERQLRRLVTNERAAGVILLVLTVGITGGTAWLLVLGAGLVHPVAGFAVEALLGWTCLAARSLHGESKLVADALAAGDLAEARFFLSRIVGRDTAELTEPEIWRGVVETVAENTSDGVIAPLFWFMIGGAPLALAYKAVNTLDSMVGYKNERYLHFGWASARFDDLVNLLPARITGLLMVLSAPLAGLSGPGAWRIMRRDGRNHSSPNAGIPEAAAAGALGVRLGGMNVYFGRPVAKPTIGDPLNPLDRTAWRGAVRLMYGSEILLTGFMLCYLFVLERP”, the protein production result is recorded as “failed”.

Take “MQECTNVQVSKMMLSAPQHLVGGSVSEITPNRDLSLDSMHTSQVKQNIRALWTALVLLSVFFCIELSAGIWSHSLSLLADAEHILSDVAALGLALIASWLSQSISQRTIFGRYKLEVLAALINGISLACIACWIVREALVRLQSPTTEILGVPMLTTALIGVGVNSFNALCLHKCSHKDLNIRGALLHLIADLASSVGAVLAAIAIIWLNWTWADGVISLVVAMLIASFAAYLLIQSVQCLRGQIADISDIACMCPPQSEVCVDRQQAEKLLFPTLEELVQ”: the protein production result is reported as “failed”.

Consider “MNIRIAEELDVPALAELYQTTVLAVAPQHYSPEQTQMWASFASDTDNFQKFILNATTFIATDERGILGFAGITEDGHVTATYVRSDLIRQGIGSILMEKILEYAHLHKIRRLYAEASEFSLGLFQKFGFHIYDTEIVNRQGVLFRRYIVERS”, for which the protein production result is “failed”.

On to “MLNEIVVFFSILVSSWNIYNSALSFYGLTWRVNQKIEYSDKTFSILVPAKNEEKVLGRLLDRLINQEYDKSKYEIIVVEDGSTDRTFQICKNYEENYDNVRCVKLDKSNVPNGKSRALNYAMKLAKFDIIGVFDADTFPRLDVLSYVSGSFDSDNVVAVQGKLIPINVRESIIARFASLEELFNEYSIGGRARFGLFVPLEGTCTFVKKSIIEEMGGWNEYSLTEDLDLSVKLTSAGYKIMYNPNVVAWREVASSLRWLIKQRLRWYRGHFEISLSMPKKIDPRIFDGILLIGTPIFMLMNLVNYSLVLIYQTPLFVVTMVIVSTATLLSFITAVGISRKHLIEYQYSILSLIYMNFVMLLNVTAVFLEIVRVPRVWIKTERSGKISVPEV”, for which the protein production entry is on record as “failed”.

Take “MRNLSRRIQSHQIRLRPPPFGAKRPVRRSESTSPPPRRRLIVGKRNRSAQVQYSMSHGLTHLSFWPLLFATLALTHVTIVSVTIFLHRHQAHRALSLHPLASHFFRFWLWLTTATVTKEWVSIHRKHHARCETPDDPHSPQCLGIFTVLLRGWMLYRKEARNTATLAQFGNGTPDDWLERKLYSRFPDLGITLMLALNLLLFGIGGLGVWAVQMLWIPFWAAGVVNGLGHHLGYRNFETPDASTNLWPIGFIIGGEELHNNHHAYPASAKFSSRRWEIDIGWLYIRLMTLLKLAKIRNMPPKTIIHTAEPSVDMDTVKAVLRNRAHVLSLYGRRVIVPVLRSEQAKSPKAGRRLLRQTRPLLLREYIKADPAAWHNFSRMLEDSQTLATIFQFKQQLKAVWTDSFTSHEERLERLRAWCLQAKQSDLPWLQHFADTLSGYRLQPAH”: the protein production entry is “failed”.

Take “QRALVLTAARGRGKSAATGLSIAGLIEKLRERKEKSIRIIVTAPSIASASQVMSFAKLGLEALGEELSVKVSDTGHIKSLRGDYFKLEYVPPDAAIEDEGELLIIDEAAALGINYIDLALRAWKKVALVTTVHGYEGSNKAFLRYLRRLIESKRIRVKWVNMEQPLRYAKGDPIEKWLYDALLLD”: the protein production entry was “failed”.

Regarding “MITNAFNEYKNEYAFDNVYGHLIEILKRNLDISTESGVVHLDIGCGYGAIAEHITGEVGRVYVGIDANKSGLKSLKDRGFETHEHFLESQEDALSFFERVIGDRKLGSISMLDTLEHLPNGLSILKAIATLASKHSAMVAISVPNIQHRDIGFKLALGSIAYTDAGLLDHTHVMMYDYDHLDRVLRHAGLRICDQNHVRVNHSDQFFPRDHPVLQNATTIRTFLKYVRANVNDQDQINQFVVAALPCEPITGPTFEAVRDVDRPFLSIVTRTQGKRIHTLVEYFTCLAGQVCRDFEVFVVGHRLSLERQIAIEQVIEDLPLWLRDKTKLIRVDHGNRTHPLNVGFAQANGRYIAIHDDDDIPMGHWVDSFRKLAIENDGALLRCVSSLQHVETVSLRGRDGVRSIGKTGPFPSEFDFIQHLSGNYSPNNTLAFPRGVFHHLNMRFDENLTTTEDWDYIMRVASVVGVASSPEITGTYQWWEKGNSLAMHTDNEWALNKAWIQEKLDARPILIPAGTVRKILSLWEHANNVATQLDAVSHRNAIIEGQLGAMSQYDIDVQAQMKAISDHVNFLKSEIDRNRNEAVDQQYLLREIGDIIDSTSWKLSAPMRWPKRILGARSSRLTDHLGSSVQQLQETKRRLLSSRSWRATRPMRAVARLFKVHPI”, the protein production result was “failed”.

With “MGHHHHHHSHKPIKVEKTVTINKPADELYRYWHNFENLPTFMKHLKSVKVYNEKRSHWIANAPLGNSVEWDADILEDRENEFISWASAEGADVENSGFVRFQKAPGDVPGQAASRLRGTEVKVVLEYNLPGGALAAVVAKLFGEEPEQQIGDELRRFKM”, the protein production result was “not failed”.

For the sequence “MTIVLIAFALYLLATALLTWAVLRDGNQSPARWLAPALAAVALHAGYHVLVAVRTAGGPDMHFFAALSLCGLGMAALTAVFGGRGRMAAVGVVVFPLSAILLASYHAYGHEPSSDLGWRLELHAWLALLAYATLGIAALLAIMLWLQERALRRRDFHSWLRALPPLTELETLLFRTITVGFVLLSLTLLTGLLFVQDFLAQRLLQKTVLSILSWIVFGALLIGRWRNGWRGTKAVHWTLTAMALLVLSFFGSKFVIELVLGPR”, the protein production entry is reported as “failed”.

In the case of “MAEPGGHEGPASTQRAKVCETHTAMVFFVEDRVYKRKKPVDLGFLDYTTRSSRRAVCEREIELNRRFAPDVYLGLGELRTPGEQEAEPLVVMRRMPDDRRLSHLVRTGAPVADDLRAVARHLAAWHSAAPRGPAIAEQGTRDALAARWEASFTQVDVLAAKGPTRDEAGEVERLVRRYLAGRKPLFGLRIEQGRVLDGHGDLLADDVFCLGDGPRILDCLEFDDALRYVDGLDDAAFLAMDLESLGAPESAAFFLAQYGEYSGDPAPPSLWHHYVAYRAFVRAKVSLIQARQGAPGAHATARRLVRMALRHLRASAVGLTLVAGLPGTGKSTLSGALADRLGAVLLSSDRLRKEMAGLSPQQTASADYGEGLYTPEWTARTYAELLDRAAALLALGESVVLDATWIDSAQREAARHTAESAGADLVALHCHVPDDVTAARLSTRAPGASDADLGVAEAMAAEEQPWSGAVGVDTGGSLEAAVGQALAAVRPWGSDQAKVFRRPYMEPDLEHHHHHH”, the protein production entry is given as “failed”.

“AVGKNKGLSKGGKKGGKKKVVDPFSRKDWYDVKAPNMFQTRQIGKTLVNRTQGQRIASDYLKGRVFEVSLADLQKDIDPERSFRKFRLIAEDVQDRNVLCNFHGMDLTTDKYRSMVKKWQTLIEAIVEAKTVDGYLLRVFCIGFTAKDQQSQRKTCYAQQSQVRKIRARMTDIITNEVSGADLKQLVNKLALDSIAKDIEKSCQRIYPLHDVYIRKVKVLKKPRFDVSKLLELHGDGGGKSVEAVVSSEGAVIDRPEGYEPPVQESV”: the protein production result is reported as “failed”.

Regarding “VALAATRAFYWIEAQSPDAATAFAQRVFDLYFSDRLDTASPEAVSRLGPEVGLEPEALLAGIADPALKETVRKIGEDAVARGIFGSPFFLVDDEPFWGWDRMEMMAEWIRTGGW”, the protein production entry is recorded as “failed”.

“MKIIRTRQRPFMVIVDVVLTVLAWVGLLYLLVRGLIPLLDSHEGPRIEAGMLDALTTLQFYAWVAVLNAVLLISWARYRQRRNKSYPPRLPAPVVDDKRLSETFKLNDATFAQMRQPGTMIVHNDEEGGISHVTTQFYRILPEDQQHPPLRVEPPPRVIHLRSEGDEGKKTGED”: the protein production result was “failed”.

With “MSFKDLREFIDHLEQKGRLKRITHPVDPAYEMTEISDRTLRAGGPALLFENPIGYNVPVLTNLFGTPERVAIGMGREDVKELREVGKLLAYLKEPEPPKGFKDALEKLPVFKQVLNMPAKRLRKAPCQDIVWQGDEVDLDKIPVMSCWAEDVAPLLTWGLTVTKGPNKKRQNLGIYRQQKIAKNKIIMRWLAHRGGALDLRDWMETNPGKPFPVSVAFGADPATILGAVTPVPDTLSEYAFAGLLRGSKTEVVKSISNDLEVPASAEIVMEGYIDPNEFADEGPYGDHTGYYNEKEKHHVFTITHITMRKDPIYHSTYTGRPPDEPAVLGVALNEVFVPILQKQFPEIEDFYLPPEGCSYRMAVVTMKKQYPGHAKRVMMGVWSFLRQFMYTKFVIVCDESVNARDWNDVVKAMTEHMDPVRDTLMIDNTPIDSLDFASPVVGLGSKMGLDATIKWDAELATRPQISKQDSKVITEADLESLKQQRPEIIDIYLPPTTNNRFAVVTMKKDQAGQSQALMEYLWDFFAQYTDNKFVILCDEDVNARDWNDIIWAVTTRMDPDRDTTRVSGKAESSSKLGLDATNKFESEVTREWGTPIKKDPKLVAKVDEIWDQLGIL”, the protein production result is “failed”.

In the case of “MTYCLGIVTQAGLIMAADSRTNAGIDYISTYQKLFDFSLPGDRTIVICCSGNLSITQAVLSQLRRDLAGHFDINLHSLPTMYDLARYLGQKVRQLQESDRDWLKQDGIDFYCNFLLGGQIRGGPIELYLVYGQGNCIHATPETPYLQIGETKYGKPILDRTISFDTSLDMAAKCALMSLDSTMRSNLSVGPPLNLARYERDSLVAPMLVQFPAGHEYLVEMRRRWEISLKDAFMRLPDIDWSRQLMRSLSPVSESVPLEHHHHHH”, the protein production result is listed as “failed”.
